Reference: the DeepSol protein solubility set

Assay: soluble on expression in E. coli; label from the status in PepcDB or PDB records

Sequence	soluble on expression in E. coli
MADVFEFELEGHESQASPQRHAYHYDNCTEIMEDDHMYSNVADGQISAPPPSSSYMEDPMMESIQLCASAINPPNVRVGPEDFQLLKVLGKGGYGKVFQVRKTTGSDNGQIFAMKVLQKATIVRNQKDTAHTKAERNILEAVKSPFICDLLYAFQTGGKLYLILEYLSGGELFMHLEREGMFMENVAKFYLSEIVVSLEHLHQQGIIYRDLKPENILLDAYGHVKLTDFGLCKEEIEGDQKTHTFCGTIEYMAPEILMRCGHGKAVDWWSLGALMFDMLTGGPPFTAENRRKTIDKILKGRLTLPAYLSNEARDLIKKLLKRHVDTRLGAGLSDAEEIKSHAFFKTTDWNLVYARQLEAPFKPNIENDEDTSLFDARFTKMTPVDSPCETNFSLNGDNPFVGFTYVAPSVLEMMNKGGHGGISVAHLASSMSRAGAAKSPRKPGDPETASILHGGHSNLFGHGPNSEAPQAFGYGIGSQMTTTTAGGAGIQQPYQSFSGGYPEDDAMDTSTPRASESRETTTGNGSTTTTRPSNVGSSASTPIPLPKRVIKLPHTHTSTQNAQYSFMLLLLNVSLFFHFF	not soluble
MTNPLNSTAANRSNQPSSDGISDGQITNEEAESLINKKNCSGHKLKEVTDSDTFSDNGKDDSDTKKRFHYHQDQRRMSLTSIVAVESPSSSNAPSRKTIDLGHGSDLIYIQRFLPFQQSWTFFDYLDKHIPWTRPTIRVFGRSCLQPRDTCYVASSGLTALVYSGYRPTSYSWDDFPPLKEILDAIYKVLPGSRFNSLLLNRYKGASDYVAWHADDEKIYGPTPEIASVSFGCERDFVLKKKKDEESSQGKTGDSGPAKKRLKRSSREDQQSLTLKHGSLLVMRGYTQRDWIHSVPKRAKAEGTRINLTFRLVL	not soluble
MGHHHHHHSHMRLLKSELGSFITDYFQNQLLAKGLFFVEEKIKLCEGENRIEVLAEVWDHFFTETLPTLQAIFYPVQSVHEPTGPSESYLQLEELVKQVVSPFLGISGDRSFSGPTYTLARRHSRVRPKVTVLNYASPITAVSRPLNEMVLTPLTEQEGEAYLEKCGSVRRHTVANAHSDIQLLAMATMMHSGLGEEASSENKCLLLPPSFPPPHRQCSSEPNITDNPDGLEEGARGSQEGSELNCASLS	not soluble
PRERVSRVHASSGTTGKPTVVGYTARDLDNWANLVARSIRAAGGKPGDIVHVSYGYGLFTGGLGAHYGAERLGCTVVPMSGGQTEKQVQLINDFRPDIIMVTPSYYCNILEEQRRQGMDPRQSSLRIGIFGAEPWTGQMRADIEAEGGIDAVDIYGLSEVMGPGVASECVETKDGPVV	not soluble
MSLELIPCGWRRYVEFRMTIVNHISPIHSVDKKGWRWFDENTKNWGFKDMIPAVILNNVNVGFLLNGEITIIAEVEVHEFIDTLNASQVEELSDDSSEDLQNKDNVTIEVNGFQVLDSQVDQVNAIFEKHPDLISNFSLKNQHIRNAYMHALLDLTKTLSKSTKELTVEDMNEADNTITDLIKAGLNLDWLRQKFDQALEKQIAYDTRIGELEKQVKKRKLAVTELEADLEKEKAAASASLMLFDEGHHHHHH	not soluble
MGSDKIHHHHHHMQVVLRIDEKDTRTLQQQVFHQIRALILEGRLRSGDPVPASRELSQQLGVSRNTVLIAYEHLLSEGYLESRANVGTFVSSALPEMSMSTLTSPANDQPSEPSGQSPAPACMPLLEHSVISPNRKKDTVDFWVGRSDGSAFPAREWRRILDTKLRHAKGQLSEYHDPRGLREFRQALADHIGPTRGVLAKPEDVVCVGGSQDGLALIARAFSRTFRTFIHEDPCYLGARAVFSNFSYDTVAVPVDRDGLRVDLLPETGRSLLYVTPSHQYPTGVTLSLERRLQLLQWAERTDSIVIEDDYDGDFRYEGTPLTALRGLDRAGRVIYLGTFSKSFGPAIRIGYLVSTAELSDAFAMWKGILSNGQPWLEQAAMADFITGGSFRRHLRRIRSTYMARRDLLARELTTRIPGTSIHGMRGGMHISARLPKGICAETLQKAAAEHRIAIYRARDCGAWLSPSNTDFDDLLVLGYAAVSDRNIRKAVDVLAHAAEQQSG	not soluble
MEESIMSIKVDMSLDCKGLACPMPIVKTKKAIEGLAPGQVIEVKATDKGSTIDIKSWASKVGHQYIGTKHEGDVLVHYVRKANEHEVNEVVKYPHTITNAELQSILSHGEESIVLDVREAAEFAFGHIPSAISVPLGELDSAVLDETKRIYVICRTGNRSDVACHMLKEKGYANVKNVIPGMLEWKGNVEK	not soluble
MRTHDDTWDIKTSVGTTAVMVAAARAAETDRPDALIRDPYAKLLVTNTGAGALWEAMLDPSMVAKVEAIDAEAAAMVEHMRSYQAVRTNFFDTYFNNAVIDGIRQFVILASGLDSRAYRLDWPTGTTVYEIDQPKVLAYKSTTLAEHGVTPTADRREVPIDLRQDWPPALRSAGFDPSARTAWLAEGLLMYLPATAQDGLFTEIGGLSAVGSRIAVETSPLHGDEWREQMQLRFRRVSDALGFEQAVDVQELIYHDENRAVVADWLNRHGWRATAQSAPDEMRRVGRWGDGVPMADDKDAFAEFVTAHRL	soluble
MEQRRVTDFFARRRPGPPRIAPPKLACRTPSPARPALRAPASATSGSRKRARPPAAPGRDQARPPARRRLRLSVDEVSSPSTPEAPDIPACPSPGQKIKKSTPAAGQPPHLTSAQDQDTISELASCLQRARELGARVRALKASAQDAGESCTPEAEGRPEEPCGEKAPAYQRFHALAQPGLPGLVLPYKYQVLAEMFRSMDTIVGMLHNRSETPTFAKVQRGVQDMMRRRFEERNVGQIKTVYPASYRFRQERSVPTFKDGTRRSDYQLTIEPLLEQEADGAAPQLTASRLLQRRQIFSQKLVEHVKEHHKAFLASLSPAMVVPEDQLTRWHPRFNVDEVPDIEPAALPQPPATEKLTTAQEVLARARNLISPRMEKALSQLALRSAAPSSPGSPRPALPATPPATPPAASPSALKGVSQDLLERIRAKEAQKQLAQMTRCPEQEQRLQRLERLPELARVLRSVFVSERKPALSMEVACARMVGSCCTIMSPGEMEKHLLLLSELLPDWLSLHRIRTDTYVKLDKAADLAHITARLAHQTRAEEGL	soluble
TEEDPSSGHGGVALESLSSFLAHSRRAGIYRLHLPDSVLSHFVRAALDYRERQVPFDFAFDSASDAELYCTELVAAALLRADSLLPIRPSISVAGRRVYSLDDLLLLPGTKCMALAN	not soluble
MGSDKIHHHHHHMKSNTTMSKTERLFHLLQILRRYRYPLSGQFLANELGVSTRTIYRDIAALQAQGADIEGEPGLGYVLKPGFMLPPLMFNEEEIEALVLGSRWVAKKTDTHLQQAAHNALAKIASVLPADLRQQLELSSLLIGPGEVISGEDESLALVRKAIRKELKLFIQYHDLKGNVSTRTIWPIGLGYFDQVRVLIAWCELKKDFRHFRADRIVDVENLGVCYAKRRSVLLHDWRKQNNIPG	not soluble
MGVYVLNVTDNSTFKGILNISDTVTAVNDQTFDSSKDLIDYVSSQKLGDSVKVTYEEDGQTKSAEGKIITLENLEHHHHHH	not soluble
MLKDEYGRVVTNLRIAVTKKCNLRCFYCHKEGESNPGEEISAERIVEIARAFKELGVRKLKITGGEPLLRKDLPDIILNLPEFEEISMTTNGILLEKYAEELRECGLSRVNVSLDTLDAEKYRWITGGGEVQKVVNGIEKACEVGLTPVKINMLVLGGVNDNEVDELLEFTNSFNRGNTKAILQVIELVPFPGFEKYFFDISTIEEKYARMATQRRVRAMHRRTQYFTPKGVIEFVKPMDNTAFCMHCNRMRVTSDGKLKPCLLRNETITIDGKHGEELARAIIETVRKREPYFKGLEHHHHHH	soluble
MGSDKIHHHHHHMKKAIVLCAGKGTRLRPLTFTTAKHLIPIANKPILFYSLENIARAGIEEVGIVVSPHNAEEFKSIVGTGENFGLRISYIIQEEPKGLAHAVWVSREFLGDEDFMMYLGDNLILEDLGKFVKDFENSDYAASILLSPVKDPTRFGVAVMEGDRVIKVVEKPKTPPSNLAIVGLYLFRNKIFEGIKNIKPSWRGELEITDAIEYLIEKGEKVRGYIVYGWWKDTGKPEDLLEANRKILMETTEELLGEMDDKSSIQGPVRIGKASKIVNSVIRGPAVIGENCFIKNSYVGPYSSIGNRVILEDCEVENSIVMDECSITGVEKRIDSSILGKGVSVKGSQKRPASLNLILGNMSRVEL	not soluble
MAHHHHHHMSAGSDARIYRCTFIKKEAVKKVIYRKYYRHKKIDTKIRKLRVSNEIKFTKKLASLNIDVPYIYFVDAKEKSLYFEYVKGCTINFILKNLKEYEPKIPICVGMVLAKIHNGNIIHGDYTTSNLILRNSFIQQNNLLDLKNNNSPYNFSDLENVKLCVIDFGLSFLSSSIEDKAVDLFVLLKTIKSFHSEFPSLEEDILEGYKMKSDNVNDIFTKLEIVKQRGRKRPMVG	not soluble
MMVWTPVNNKMFETFSYLPPLTDEQIAAQVDYIVANGWIPCLEFAEADKAYVSNESAIRFGSVSCLYYDNRYWTMWKLPMFGCRDPMQVLREIVACTKAFPDAYVRLVAFDNQKQVQIMGFLVQRPKTARDFQPANKRSV	soluble
PQYIGGISNTFKYKNWEFSCFVTMQAGNKIRMNPSFDPAFADLNVFSKEYYNRWLNPGDERKTNIPVIPSQDLIRNIGKENIEKAYNTYNYSQNRVADGSFVRMKNISLGYRLPQRFLSHLKIKQMNVKVNVTNPFLIYSDRKLNGQDPEFYRSGGVSLPTPKQYTMTLNVEF	not soluble
MIVRAINYESLHIDDRFGSIEELKTKISQKYGIPINSQHIIFNGKFYVLGIFDSPLTVSSDTYTNPLGCFGCPDSLFNDLAGNGMTTDEIREYAFPHKDDPAKREGPDLSSVIDTRAIAKRITENRYEDAYKIPNDLSEKEKTIIMESSGEYIDLVLKQIKEILRSNTKY	not soluble
ARVNAQTGAPDILTSLDEKSVSYDTVMDKYWLSQYVIARETYDWYTLQKDYETVGMLSSPSEGQSYASQFQGDKALDKQYGSNVRTSVTIVSIVPNGKGIGTVRFAKTTKRTNETGDGETTHWIATIGYQYVNPSLMSESARLTNPLGFNVTSYRVDPEMGVVQ	soluble
MGSDKIHHHHHHMEKSKYKRDWSKYDENVITRYKLMFPFYVFEHWWDLLAEENRNARTKYKAPKEFNEFLAFLHIFLPYRAIEGVLRALEQLKIIPTSLDYSTIWERVRNMNITFPETSDELEVIADATGISTNTGGQYIVAKWGKTRDSKFLKIEIVMDNNEFNVINAEVTSNEVESAVKTVKDLQDKGKKVKKFYGDKAYDANEVYKTGVEVVVPPKKNASTKRHLARRKAVREFRKLGYDRWKEEKGYGVRWRVESLFSAVKRTFGESVRQVLLGK	not soluble
MAMRHLSRSRDVTKRSTKKYIEEPLYNRLFKDGGTEVKVRQQLNQFLKGTKHVFKWEVGDTIKKLRNRGLYYPALKLSEVMEERGMNKTVSDQAIHLDLVAKAREITAGENYFVDLPETSKTELTYGSLLNCYCKELLTEKAEGLLNKMKELNITPSSMSYNSLMTLYTKTGETEKVPAMIQELKAENVMPDSYTYNVWMRALAATNDISGVERVIEEMNRDGRVAPDWTTYSNMASIYVDAGLSQKAEKALQELEMKNTQRDFTAYQFLITLYGRLGKLTEVYRIWRSLRLAIPKTSNVAYLNMIQVLVKLNDLPGAETLFKEWQANCSTYDIRIVNVLIGAYAQEGLIQKANELKEKAPRRGGKLNAKTWEIFMDYYVKSGDMARALECMSKAVSIGKGDGGKWLPSPETVRALMSYFEQKKDVNGAENLLEILKNGTDNIGAEIFEPLIRTYAAAGKSHPAMRRRLKMENVEVNEATKKLLDEVSQDV	soluble
APLFIKNVNGIKVAILSYAYGFNGLESNLTEKEIANHLSNLDEKRMKVEIERAEKEADVTVIMPQMGVEYRLEPTDEQVKLYHKMIDWGADIIFGGHPHVVEPSEVVKKDGQQKLIIYSMGNFISNQRIETVDGVDNAAWTERSVLMDVTLEKKNCQTTIKTAQAHPTWVNRTPKGTISPEGYPLYTYQTYILEDFIKGRKYRNKLDEETKERIDTAYKEMNAHVNL	not soluble
